Substitutions are numbered along the chain they refer to.
Molecular target: T1, secreted form of VEGF-2 polypeptide (human vascular endothelial growth factor 2) (human, UniProt P49767 112-227, limits assumed)
T1 construct: also called secreted VEGF-2 protein
T1 sequence: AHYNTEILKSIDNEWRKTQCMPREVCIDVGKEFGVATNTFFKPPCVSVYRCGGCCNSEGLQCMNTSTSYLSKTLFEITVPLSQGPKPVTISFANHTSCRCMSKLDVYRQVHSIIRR
Test: BIAcore (SPR), CM5 chip; antibody captured by goat anti-human Fc; secreted VEGF-2 injected at 2.9-95.2 nM; double reference subtraction
Method: A high-density CM5 BIAcore sensor chip was prepared using 10 ug/mL of purified goat anti-human fc antibody as the capture reagent. The optimal pH for immobilization was pH 4 (10 mM sodium acetate). An EDC/NHS complex was applied first to activate the carboxyl groups on the sensor matrix. After the VEGF-2 antibodies were immobilized, the esters were inactivated with ethanolamine. Both a control and an experimental flow cell were used.
The kinetics cycle was performed with the following procedures. The flow rate for the entire binding cycle was 25 uL/minute. The purified VEGF-2 antibody, at 5 ug/mL, was injected only in the experimental flow cell for 1 minute. The secreted form of VEGF-2 was then injected into control and experimental flow cells. The concentration the secreted form of VEGF-2 polypeptide varied for each cycle. The secreted form of VEGF-2 polypeptide (calculated as a 21 kDa dimer) was diluted in HBS-EP from 2 ug/mL (95.2 nM) to-0.06 ug/mL (2.9 nM). Both association and dissociation was 7 minutes. Regeneration was performed using 8 uL of 25 mM HCl for all flow cells.
Evaluation was performed using the double reference subtraction, which subtracts the control flow cell from the experimental and also subtracts a buffer injection.

B1: antibody 1.2.3 (antibody expressed by hybridoma cell line 1.2.3, ATCC Deposit Number PTA-3342) (antibody, human IgG2, V domains shown)
VH: QVQLVESGGGVVQPGRSLRLSCAASGFTFSRYGMHWVRQAPGKGLEWVALIWYDGSNKYYADSVKGRFTISRDNSKNTLYLQMNSLRAEDTAVYYCARDGFGSGCFDYWGQGTLVTVSS
VL: DIVMTQTPLSLSVTPGQPASISCKSSQSLLHSDGKTYLYWHLQKPGQPPQLLIYEVSHRFSGVPDRFSGSGSGTDFTLKISRVEAEDVGLYYCVQSIQLPLTFGGGTKVEIKR
notes: Purified hybridoma antibody from XenoMouse; also called Hybridoma 1.2.3
  Kd: 0.321 nM
  koff: 9.49e-05 s⁻¹
  kon: 295000 M⁻¹ s⁻¹

B2: antibody 1.5.1 (antibody expressed by hybridoma cell line 1.5.1, ATCC Deposit Number PTA-3341) (antibody, V domains shown)
VH: QVQLVESGGGVVQPGRSLRLSCAASGFTFSRYGMHWVRQAPGKGLEWVAIIWYDGSDKYYADSVKGRFTISRDNSKNTLYLQMSSLRAEDTAVYYCARGTVGASFDYWGQGTLVTVSS
VL: B1 VL with H31N, H41Y, Y54N, H58N, L90V, V94L
notes: Purified hybridoma antibody from XenoMouse; VAX1510 is the IgG1 conversion of 1.5.1; also called Hybridoma 1.5.1
  Kd: 1.79 nM
  koff: 0.000657 s⁻¹
  kon: 367000 M⁻¹ s⁻¹

Reference: patent publication US20030176674A1 (Human Genome Sciences, published 2003)
